Measurements from the DeepSol protein solubility set.

Assay: soluble on expression in E. coli; label from the status in PepcDB or PDB records

| Sequence | soluble on expression in E. coli |
| --- | --- |
| MDSDEVRKRKEYAERKVKERHAALRKEAEEKRKHTVEHRERVQSVLKREQIALQKRMQQLNEDEERKKVTLAKQHEVSSRIAAITKSPKSFAFGSSTPRTLAYLDNLPKSEQQYDKKLRPLDQGPSQTTSPTSTTSNTTKMGRLSMTPQRAPPASHRPAPAMASMTTSMYVTSSAPSTRQAKSISKPAAVTTKKVGSMMTQSVYTPTSRPATSSRLTMKQPARGASTSAARPNTATPSSSNNRRSMDQRKPPMPRKLPFGKPEAARKSASPVAAQEPTAPVVVVAPVEAIPEVPAVQEEVLTVEEPAAPAREAVVEEAPEAVVEQEEITVAPEAVVAEEQQIAPEATPTVIEEHHNEVTVAPEAPEIQEPSEPATEPIPEPNEPKDEEIQRNEEMFHEDTSESHLESSTNTSLADELISIGIDQSQEILPSKPEILELHYPLVEEQNAVIAPVGAGEGSGVNDLIGVFGNDFINQNQPPPQQQQQQQRLVQFDEDTDSGKASPTSSETSSTTDEVTPRGAIEEEAAAEKITAPRVLPIVRSAEDIARKEKEIRESEERKSRLAAILAKSRGMASPMTNTLPPTADDIKGRCSHLHPLKRLPKRHRMSLEEQMMCSPVSLR | not soluble |
| MDSVIQKRIFVGNIFHNADDCYSELLDRFGKFGDCQDFQFEKHNHFAFIDIRFNDEADFNKLRKSFNNVKFKGNILKVDEAKPNWESTWAVQHAKDLKEDIILNAKMKKKNWQHYKKMENVAKSWKDHKEVIAGRMREAPRKRSQLRNITFRINVNGSLKVYKCYKTKLWGYERNKELNDLVYKFTNNFWKNGYNHIVDRLDYSRAVKTVRFKNGLKQLTVSKDENVCSGEMDSDENMSEEEKEKNNVILNDLLKDFDFDKPMTLNDSDEELLTEQRKGEEEEEEEEEKEVNAPEYENVNKTKDQSTLPQEKPEERKEQDEGDGQEDNEFIPTFTKEIGQGTISNTETLRNLFNPNEAEPVSQFKLIEDSDNDIDHAKDVDVNQLEEEVSKSSDTLGLTSAPVPHVSRDKDNKNFLFFPHLQSPFLVGQTQLSKVRAPGRETMLSNWDEEFWANRGNWTRDMRRKMKDALKHRKRKQSKSGLLL | not soluble |
| MDSYGYVETLGLVTAIEAADAALKAANVTLMNCYYVKGGIVTIEVAGDVSAVTAAVDAATESAKRLGNFLSSNVIARIDSETKKILISDLGNKEKKQKIENKSVVKDTTIEKKATEKISTEEITEEIINESKNENFDEEQNKEINEKVTEIAEVYEKVENPAEKLDQNNDIQEKIEVFEIEVEKEDDEAEKLKKQYQGMKVIDLKKMVNSCKLGYTWNQIKTMPKKKLIEILIKNNKEEAQWQH | not soluble |
| MDTKVVPKISEKICEKFANIINKKPQKKGKEYKIGVDLGTANVVVAVLNENNEPVAGAMKSAQVVKDGVVVDFVGAKEIVKRMVDFLNEELEGKLRVAACAIPPGTGEGVSKATKYVVEEAGLEVIKVVDEPTAAAKLLEIMDGIVVDIGGGTTGISVLKDGKVVYVADEPTGGTHFTLVLAGHFNISFEEAEKIKLDVQRQKLLTPILKPCMEKVAEIIKRHTFSFDNIDTIYLVGGASALHGLKEVVENTTRKKVIVPQYPIFITPLGIALSCEKG | not soluble |
| MDTYQNMNFHDNINSNIPKNYNSFYEELKKNLNESDILTIAYEVEVLKNIKKINCDEIGKNWDYSFIDSEYGKSTLVILEVGYHLISPYIENNENKKKKLQLFLLLINSMYFPNPYHNANHGATVCHLSKCLAHITDYDSYLNNTYMICYLIASIAHDVGHPGKTNSYLSETNHILSIRYNDMSILENYHCSITFSILQLIGFDFLINNEDTKLVEKNNYTNMRKFIIELIISTDMKLHFEYVDIFKKRKKSQNFDISDTDAINLGTINIKLADIGHTCLKWKDHAKWTMLVSEEFFSQKRVEELHKNKNIDPLNFSNFGKEDNIDEGMIFNYENIYINYINNINNINTYDYSYIKLNFIHHHDFVKSIPSTQVYFFEIIVMPLIKELQSMEKSKKEITQKVLHNLNINLQTWRLIEKNINLFYNTEKMTGTDYYKNLEKQKLLRGIRLLDIAEEDVISLTKNFKEEIKHG | not soluble |
| MDVFLMIRRHKTTIFTDAKESSTVFELKRIVEGILKRPPDEQRLYKDDQLLDDGKTLGECGFTSQTARPQAPATVGLAFRADDTFEALCIEPFSSPPELPDVMKPQDSGSSANEQAVQ | soluble |
| MDWGMQSRLSWIFNPKTGKTVMLAFDHGYFQGPTIGLERIDINIAPLFEHADVLMCTRGILRSVVPPATNKPVVLRASGANSILAELSNEAVALSMDDAVRLNSCAVAAQVYIGSEYEHQSIKNIIQLVDAGMKVGMPTMAVTGVGKDMVRDQRYFSLATRIAAEMGAQIIKTYYVEKGFERIVAGCPVPIVIAGGKKLPERETLEMCWQAIDQGASGVDMGRNIFQSDHPVAMMKAVQAVVHHNETADRAYELYLSEKQ | not soluble |
| MDWSEERTATLKKLWLEGLSASQVARQLGGVSRSAVIGKVHRLGITVRETPVRQRATTARAPSRISVRQRPSRDVATPRVAPRYERIEEDLLPTSGILGLGAHSCRWPIGHPENDDFGFCGRPKASARGSYCEQHSQGAFRRLSGGQALEAWALKGVKEKRIQPRLVLEHHHHHH | not soluble |
| MDYRFGRQYRLLKTDDFSSVFAFRNRRSRDLLQVSRSNGNGLGHPRIGLVVGKKTAKRANERNYMKRVIRDWFRLNKNRLPPQDFVVRVHRKFDRATAKQARAELAQLMFGNPATGCRKQA | not soluble |
| MDYSSSLPQSDRSTSTAAGHWVLARAGKRVLRPGGLKLTKRMLSAADMQGKEIVEFAPGLGRTAQLIVTEGVSSYVGVDQDSAAVARVEAIVKPHGGTVINAKAHDTGLSGESAEVVVGEAMLTMQGEKAKAEIVAEAFRLLKPGGYYAIHELGLTPNDIDPELADGLRKQLAQTIRVNARPLTENEWRTVLTNAGFEVEWISFAPMALLSPKRNLADEGFLGVVRIIRNLIRDKALRARVFQMRSTFNKYRDHLTGIAIVAKKPSN | not soluble |
| MDYTIVVSATASDAAPLKFLAPYSGCAIGEHFLDNGKHALIIFDDLSKKAANCHVVCRTDEIELDILNRMEEDIKLHPLTWYDIWSSLETKIKVVRARIPKSLSRR | not soluble |
| MEDLDFPICILKMNLQCCEDFPSRVKKLLRQVKGVYAITIDPVKGLILVCGTAEPSVLIKAVAKLGQSPQLYAYEKDPATAKTRFRTLLKRYATNKTQDKPSPPAPPVTATTPVETCPAGGETFRGFGYPGPTTMMQMPAFSLPPPRGLPGWLAPPTNPRLKYEEPKVTPRKPPAPYPFDYYENLGFPPSDSLFNYFSDDNPQPCSIM | soluble |
| MEDLIDGIIFAANYLGSTQLLSDKTPSKNVRMMQAQEAVSRIKMAQKLAKSRKKAPEGESQPMTEVDLFILTQRIKVLNADTQETMMDHPLRTISYIADIGNIVVLMARRRIPRSNSQENVEASHPSQDGKRQYKMICHVFESEDAQLIAQSIGQAFSVAYQEFLRANGINP | soluble |
| MEDLTNVSSLLNMERARDKANEEGLALLQEEIDKMVETTELMTGNIQSLKNKIQILASEVEEEEERVKQMHQINSSGVLSLPELSQKTLKAPTLQKEILALIPNQNALLKDLDILHNSSQMKSMSTFIEEAYKKLDAS | soluble |
| MEDNRVEEDGEVKSDVGTSSDEKASDSEVEKRQRTDSERSGKDKKKKHKKEKKHKKDKKHKKEKKHKREKEVEMENDGPPAKKRTLEEVDTKKDESKKKEAKESSRNNEDELRNPPRRERSKSAERRDRELRERRDAERRDRSLSKERRLIQRKREDNRRDPRAHEGNRRRDRTPERFRNNRDRRDRDGRREDRHRRSPDRRRDSDRKREDGKRKDESKDVEWNLDSDSDDEQKKIEAARKRRIQIIKKIEGHTEENTPRDSSTPRSDTIGDKKTDESEDSSSDSEDDEDDRKLAEAKDLIKSTRFGSEQGSGASTPVSIQSDNDTPTDFFSGLRDKMVHMKDADEHNVDEVLQRGKDEEYREDWHTQLKEQEKREEEEKKKKLEAEAAAEAAKKKKQEEDDTGFDMFADNEELPQDSTTIDGHSGAVHDTLKDNWDDVEGYYRVRIGELLDTRYRVVGFTGAGVFGNVCRCNDQTKGNTVAVKIIRNNEVMYKTGLRELEVLRKLNEADKEDKYHCLRLFRTFKHHNHLCLVFENLSMNLRELLKKYGQKDGLHLKAVRSYAQQLLLALRLLKKLEFVHADIKPDNILVNESKLTLKLCDFGSAGRVNEQELAPYLVSRFYRAPEIMLGVRHDYAIDLWSVAVTLYEVYTGKIMFPGRTNNHMLKLFTDVKGKYPNKLVRKSQFKDTHFDVNCNLLYQEVDKVTERNKITVLANLKPTRDLESELIAGQRLSRDQMDQIQAFRTLLDGMLILDPSKRTTCNEALKHPFFTIPIK | soluble |
